For this assay, the target named is Recombinant Gn (residues 21–452) of the SFTSV membrane glycoprotein polyprotein (severe fever with thrombocytopenia syndrome virus). Description: ELISA. On the technique in general: An ELISA detects its analyte on a solid surface through an enzyme-linked reagent.

Values joined by “and” are separate entries in the source; they are usually repeats but may differ in a detail not shown here. Equal entries are not always repeated. No end group written: not given here.

Turning to KKRGFGS (not fully specified) [Biotinylated HKU-P1], the binding affinity was 700 µg/mL; the signal over background at 250 µg/mL (fold) is 2 fold and 3 fold.

(Values after PMC8539749 (Viruses, 2021).)
